The values that follow come from patent US20100203559A1.

As usually defined, the Kd is the free concentration of one partner at which half of the binding sites on the other are occupied at equilibrium, for simple one-to-one binding. The low end stands for higher affinity, the high end for lower affinity. One may read the koff as the rate constant with which the complex falls apart. The low end stands for a long-lived complex, the high end for a short-lived complex. Usually kon stands for the second-order rate constant of association. The low end stands for slow association, the high end for fast association.

Experiment [1] deals with SNAP-25134-206 peptide (human). Kind of experiment: SPR (BIAcore 3000), peptide amine-coupled to CM5, antibody as analyte, 1:1 fit. In general terms: SPR reads the build-up and loss of mass on a sensor chip optically.
Experiment [2] deals with SNAP-25134-197 peptide (human). Described as above.
Experiment [3] deals with GAPDH (SiMa cell lysate) (human (SiMa cells)) (UniProt P04406). Briefly: ECL sandwich ELISA, SiMa lysate; capture G8795, detection 2275-PC-1; result of the pair. A general note: In an ELISA, binding on a coated surface is turned into a signal by an enzyme label.
The target is the same in experiment [4]. Kind of experiment: ECL sandwich ELISA, SiMa lysate; capture MAB374, detection 2275-PC-1; result of the pair.
The target is the same in experiment [5]. Kind of experiment: ECL sandwich ELISA, SiMa lysate; capture MAB374, detection G9545; result of the pair.
The target is the same in experiment [6]. Briefly: ECL sandwich ELISA, SiMa lysate; capture MAB374, detection G8795; result of the pair.
The target in experiment [7] is syntaxin 1 (SiMa cell lysate) (human (SiMa cells)) (UniProt Q16623). Briefly: ECL sandwich ELISA, SiMa lysate; capture S0664, detection S1172-2; result of the pair.
The target is the same in experiment [8]. Kind of experiment: ECL sandwich ELISA, SiMa lysate; capture S0664, detection S1172-1; result of the pair.
Experiment [9] deals with syntaxin 2 (SiMa cell lysate) (human (SiMa cells)) (UniProt P32856). Kind of experiment: ECL sandwich ELISA, SiMa lysate; capture MAB2936, detection AB5596; result of the pair.
The target is the same in experiment [10]. Briefly: ECL sandwich ELISA, SiMa lysate; capture MAB2936, detection S5687; result of the pair.

In experiment [1], “MC-6050 α-SNAP-25 mouse monoclonal antibody (Research & Diagnostic Antibodies)” displayed a Kd of 19800 nM, a koff of 0.00607 s⁻¹ and an on-rate (kon) of 306 M⁻¹ s⁻¹. In experiment [2], this substance registered a Kd of 0.497 nM, an off-rate (koff) of 0.000882 s⁻¹ and an on-rate constant (kon) of 1.78e+06 M⁻¹ s⁻¹.

In experiment [1], “MC-6053 α-SNAP-25 mouse monoclonal antibody (Research & Diagnostic Antibodies)” yielded an equilibrium dissociation constant (Kd) of 240 nM and an off-rate constant (koff) of 2.56e-05 s⁻¹. In experiment [2], this substance displayed a Kd of 0.508 nM, a koff of 0.00118 s⁻¹ and an on-rate constant (kon) of 2.32e+06 M⁻¹ s⁻¹.

In the case of “α-GAPDH mouse monoclonal antibody G8795 (Sigma)”, in experiment [3], the Signal/Noise Ratio (lysate/buffer) is 2.74.

On to “α-GAPDH mouse monoclonal antibody MAB374 (Chemicon)”, for which the figures for the Signal/Noise Ratio (lysate/buffer) in experiment [4], in experiment [5] and in experiment [6] were 20, more than 100 and 0.89, respectively.

With “α-Syntaxin 1A-HPC mouse monoclonal antibody S0664 (Sigma)”, the values for the Signal/Noise Ratio (lysate/buffer) in [7] and in [8] were 1.21 and 4.23, respectively.

As to “α-human syntaxin 2 mouse monoclonal antibody MAB2936 (R & D Systems)”, the Signal/Noise Ratio (lysate/buffer) in [9] came out at 1.2; in [10], 1.07.
